Ends that are not written are not given here. Peptide text beside a SMILES is read from it. * marks the point of attachment. Biotin = O=C1N[C@H]2[C@H](CS[C@H]2CCCCC(=O)*)N1
Tests used:
Format in all cases: binding
[1] = biological target: T1, PDZ protein (GST-PDZ fusion) (Homo sapiens, UniProt Q8NI35); test: G' assay (10 uM PL peptide), results of TABLE 7 and TABLE 12; details: PDZ INADL, PDZ Domain 3
T1 construct: made in house; host or cells: E. coli (DH5alpha, BL21 or JM109)
Outline: (§1)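 Biotinylated PL peptides at 10 uM (vs 20 uM in G^0 assay) bound to GST-PDZ fusions; PDZ protein at 5 ug/ml unless another concentration listed. Bound peptide read as A450 nm, classified 0–5 (0 = A450 0; 5 = A450 >4 repeated).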

[2] = biological target: T2, PDZ protein (GST-PDZ fusion) (Homo sapiens, UniProt P55196); test: as above; details: PDZ AF6, PDZ Domain 1
T2 construct: made in house; host or cells: E. coli (DH5alpha, BL21 or JM109)
Outline: as §1

[3] = biological target: T3, PDZ protein (GST-PDZ fusion) (Homo sapiens, UniProt Q12923); test: as above
T3 construct: made in house; host or cells: E. coli (DH5alpha, BL21 or JM109)
Outline: as §1

[4] = biological target: T4, PDZ protein (GST-PDZ fusion) (Homo sapiens, UniProt Q5TCQ9); test: as above
T4 construct: made in house; host or cells: E. coli (DH5alpha, BL21 or JM109)
T4 sequence (Q5TCQ9 1-1481): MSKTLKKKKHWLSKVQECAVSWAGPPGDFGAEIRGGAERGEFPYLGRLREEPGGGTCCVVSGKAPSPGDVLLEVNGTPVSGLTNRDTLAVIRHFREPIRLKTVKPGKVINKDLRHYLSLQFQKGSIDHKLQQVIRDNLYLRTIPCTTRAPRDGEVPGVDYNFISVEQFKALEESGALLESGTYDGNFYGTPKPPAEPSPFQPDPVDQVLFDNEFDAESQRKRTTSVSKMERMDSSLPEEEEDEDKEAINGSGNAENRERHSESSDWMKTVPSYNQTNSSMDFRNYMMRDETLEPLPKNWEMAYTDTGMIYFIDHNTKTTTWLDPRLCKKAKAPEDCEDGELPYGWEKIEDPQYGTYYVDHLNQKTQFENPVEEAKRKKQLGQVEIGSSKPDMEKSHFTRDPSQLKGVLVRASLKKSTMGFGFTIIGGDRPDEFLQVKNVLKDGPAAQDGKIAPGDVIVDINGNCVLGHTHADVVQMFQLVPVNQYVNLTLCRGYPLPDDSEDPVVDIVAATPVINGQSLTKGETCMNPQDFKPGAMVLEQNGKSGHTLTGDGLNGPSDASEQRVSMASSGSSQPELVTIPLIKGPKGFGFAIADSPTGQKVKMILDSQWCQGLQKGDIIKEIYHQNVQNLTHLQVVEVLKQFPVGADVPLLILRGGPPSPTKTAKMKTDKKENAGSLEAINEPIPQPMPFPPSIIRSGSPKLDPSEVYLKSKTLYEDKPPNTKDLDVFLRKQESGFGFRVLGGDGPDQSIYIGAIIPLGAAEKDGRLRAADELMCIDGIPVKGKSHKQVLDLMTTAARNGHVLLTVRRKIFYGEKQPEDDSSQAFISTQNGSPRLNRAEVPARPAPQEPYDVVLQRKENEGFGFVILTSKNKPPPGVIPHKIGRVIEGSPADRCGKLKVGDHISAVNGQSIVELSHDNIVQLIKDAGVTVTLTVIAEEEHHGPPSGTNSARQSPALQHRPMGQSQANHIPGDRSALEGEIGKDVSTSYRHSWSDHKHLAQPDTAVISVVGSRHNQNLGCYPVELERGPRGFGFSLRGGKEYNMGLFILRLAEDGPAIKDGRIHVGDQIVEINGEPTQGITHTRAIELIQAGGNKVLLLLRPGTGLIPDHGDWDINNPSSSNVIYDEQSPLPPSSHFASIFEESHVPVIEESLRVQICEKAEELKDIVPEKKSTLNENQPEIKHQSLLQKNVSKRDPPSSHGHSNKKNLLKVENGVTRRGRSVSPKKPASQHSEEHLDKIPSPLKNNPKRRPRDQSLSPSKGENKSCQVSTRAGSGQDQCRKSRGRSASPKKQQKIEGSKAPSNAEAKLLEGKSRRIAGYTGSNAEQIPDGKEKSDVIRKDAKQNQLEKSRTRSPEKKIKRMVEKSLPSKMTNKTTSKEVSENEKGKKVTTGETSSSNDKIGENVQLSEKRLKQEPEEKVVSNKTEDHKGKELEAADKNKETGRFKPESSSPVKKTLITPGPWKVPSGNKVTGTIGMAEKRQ
Outline: as §1

[5] = biological target: T5, PDZ-domain polypeptide (GST/PDZ fusion protein) (Homo sapiens, UniProt Q12923); test: Apparent affinity (Kd) by titration of PL peptide in the G assay; details: PDZ PTPL-1, PDZ Domain 2; read-out: Peptide Optimal Conc (non-zero value: Kd by titration of the PL peptide)
T5 construct: made in house; host or cells: E. coli (DH5alpha, BL21 or JM109)
Experimental: (§2) The third column labeled “Peptide Optimal Concentration” in the tables is a number reflective of the binding interaction between the PL protein and PDZ protein. […] The column labeled “Protein Optimal Concentration” refers to the protein concentration used to assay PL interaction (in ug/ml); a ‘0’ is indicative of 5 ug/ml protein concentration; any other value represents the concentration (in ug/ml) used to determine the dissociation constant for a given interaction.
(§3) The “A” and “G” assays described supra can be used to determine the “apparent affinity” of binding of a PDZ ligand peptide to a PDZ-domain polypeptide. Apparent affinity is determined based on the concentration of one molecule required to saturate the binding of a second molecule (e.g., the binding of a ligand to a receptor). Two particularly useful approaches for quantitation of apparent affinity of PDZ-ligand binding are provided infra.
(§4) In cases where satisfying the above criteria proves difficult, an alternative approach (infra) can be used.
(§5) (1) A fixed concentration of a PDZ-domain polypeptide and increasing concentrations of a labeled PL peptide (labeled with, for example, biotin or fluorescein, see TABLE 9 for representative peptide amino acid sequences) are mixed together in solution and allowed to react. In certain assays, peptide concentrations are 0.1 uM, 1 uM, 10 uM, 100 uM, 1 mM. In other assays, appropriate reaction times can range from 10 minutes to 2 days at temperatures ranging from 4° C. to 37° C. In some instances, the identical reaction can also be carried out using a non-PDZ domain-containing protein as a control (e.g., if the PDZ-domain polypeptide is fusion protein, the fusion partner can be used).
(§6) (2) PDZ-ligand complexes can be separated from unbound labeled peptide using a variety of methods known in the art.
(§7) (3) The PDZ-ligand complex is detected based on presence of the label on the peptide ligand using a variety of methods and detectors known to one of skill in the art. For example, if the label is fluorescein and the separation is achieved using HPSEC, an in-line fluorescence detector can be used. The binding can also be detected as described supra for the G assay.

[6] = biological target: T6, PDZ-domain polypeptide (GST/PDZ fusion protein) (Homo sapiens, UniProt Q5TCQ9); test: as above; details: PDZ KIAA1634, PDZ Domain 2; read-out: Peptide Optimal Conc (non-zero value: Kd by titration of the PL peptide)
T6 construct: made in house; host or cells: E. coli (DH5alpha, BL21 or JM109)
T6 sequence (Q5TCQ9 1-1481): T4 sequence (Q5TCQ9 1-1481)
Experimental: as §2, §3, §4, §5, §6, §7

[7] = biological target: T7, PDZ protein (GST-PDZ fusion) (Homo sapiens, UniProt O14908); test: G' assay (10 uM PL peptide), results of TABLE 7 and TABLE 12; details: PDZ TAX IP2, PDZ Domain 1
T7 construct: made in house; host or cells: E. coli (DH5alpha, BL21 or JM109)
T7 sequence (O14908 1-333): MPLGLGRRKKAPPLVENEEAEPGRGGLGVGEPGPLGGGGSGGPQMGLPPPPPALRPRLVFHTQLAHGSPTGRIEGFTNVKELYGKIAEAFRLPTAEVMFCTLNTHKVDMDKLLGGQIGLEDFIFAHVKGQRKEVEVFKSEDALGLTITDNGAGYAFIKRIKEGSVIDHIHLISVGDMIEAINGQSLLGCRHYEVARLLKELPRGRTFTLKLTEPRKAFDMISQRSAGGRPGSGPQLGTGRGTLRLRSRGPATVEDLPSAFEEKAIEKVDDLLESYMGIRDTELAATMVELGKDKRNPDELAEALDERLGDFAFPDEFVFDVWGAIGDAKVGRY
Outline: as §1

[8] = biological target: T8, PDZ protein (GST-PDZ fusion) (Homo sapiens, UniProt Q6P0Q8); test: as above
T8 construct: made in house; host or cells: E. coli (DH5alpha, BL21 or JM109)
Outline: as §1

[9] = biological target: PDZ-domain polypeptide (GST/PDZ fusion protein); test: Apparent affinity (Kd) by titration of PL peptide in the G assay; details: PDZ TAX IP2, PDZ Domain 1; read-out: Peptide Optimal Conc (Kd by titration of the PL peptide)
Experimental: as §2, §3, §4, §5, §6, §7

[10] = biological target: T9, PDZ protein (GST-PDZ fusion) (Homo sapiens, UniProt Q02410); test: G' assay (10 uM PL peptide), results of TABLE 7 and TABLE 12; details: PDZ Mint 1, PDZ Domain 1, 2
T9 construct: made in house; host or cells: E. coli (DH5alpha, BL21 or JM109)
T9 sequence (Q02410 1-837): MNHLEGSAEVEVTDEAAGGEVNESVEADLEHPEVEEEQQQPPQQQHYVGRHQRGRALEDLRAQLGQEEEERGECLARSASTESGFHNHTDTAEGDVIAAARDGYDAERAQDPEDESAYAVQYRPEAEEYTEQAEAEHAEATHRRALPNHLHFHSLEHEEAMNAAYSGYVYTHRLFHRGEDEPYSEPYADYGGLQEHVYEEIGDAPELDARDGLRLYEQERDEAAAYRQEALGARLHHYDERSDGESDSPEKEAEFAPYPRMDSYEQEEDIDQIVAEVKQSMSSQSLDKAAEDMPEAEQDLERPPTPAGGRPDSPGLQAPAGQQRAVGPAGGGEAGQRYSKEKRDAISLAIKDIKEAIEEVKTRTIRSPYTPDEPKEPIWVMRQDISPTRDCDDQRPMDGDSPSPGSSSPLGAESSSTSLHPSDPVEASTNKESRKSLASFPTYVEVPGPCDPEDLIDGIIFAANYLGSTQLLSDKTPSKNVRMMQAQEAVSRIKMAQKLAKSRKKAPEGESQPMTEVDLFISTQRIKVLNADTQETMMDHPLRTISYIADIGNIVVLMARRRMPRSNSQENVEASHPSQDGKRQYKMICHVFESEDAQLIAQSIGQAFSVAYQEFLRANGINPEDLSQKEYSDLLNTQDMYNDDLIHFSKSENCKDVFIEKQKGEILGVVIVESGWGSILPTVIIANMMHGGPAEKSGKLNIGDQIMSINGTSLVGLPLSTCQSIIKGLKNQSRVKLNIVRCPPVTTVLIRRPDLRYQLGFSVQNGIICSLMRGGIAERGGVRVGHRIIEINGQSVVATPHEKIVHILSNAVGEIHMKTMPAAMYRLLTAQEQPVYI
Outline: as §1

T8 sequence (Q6P0Q8 whole entry, the tested form may be a part): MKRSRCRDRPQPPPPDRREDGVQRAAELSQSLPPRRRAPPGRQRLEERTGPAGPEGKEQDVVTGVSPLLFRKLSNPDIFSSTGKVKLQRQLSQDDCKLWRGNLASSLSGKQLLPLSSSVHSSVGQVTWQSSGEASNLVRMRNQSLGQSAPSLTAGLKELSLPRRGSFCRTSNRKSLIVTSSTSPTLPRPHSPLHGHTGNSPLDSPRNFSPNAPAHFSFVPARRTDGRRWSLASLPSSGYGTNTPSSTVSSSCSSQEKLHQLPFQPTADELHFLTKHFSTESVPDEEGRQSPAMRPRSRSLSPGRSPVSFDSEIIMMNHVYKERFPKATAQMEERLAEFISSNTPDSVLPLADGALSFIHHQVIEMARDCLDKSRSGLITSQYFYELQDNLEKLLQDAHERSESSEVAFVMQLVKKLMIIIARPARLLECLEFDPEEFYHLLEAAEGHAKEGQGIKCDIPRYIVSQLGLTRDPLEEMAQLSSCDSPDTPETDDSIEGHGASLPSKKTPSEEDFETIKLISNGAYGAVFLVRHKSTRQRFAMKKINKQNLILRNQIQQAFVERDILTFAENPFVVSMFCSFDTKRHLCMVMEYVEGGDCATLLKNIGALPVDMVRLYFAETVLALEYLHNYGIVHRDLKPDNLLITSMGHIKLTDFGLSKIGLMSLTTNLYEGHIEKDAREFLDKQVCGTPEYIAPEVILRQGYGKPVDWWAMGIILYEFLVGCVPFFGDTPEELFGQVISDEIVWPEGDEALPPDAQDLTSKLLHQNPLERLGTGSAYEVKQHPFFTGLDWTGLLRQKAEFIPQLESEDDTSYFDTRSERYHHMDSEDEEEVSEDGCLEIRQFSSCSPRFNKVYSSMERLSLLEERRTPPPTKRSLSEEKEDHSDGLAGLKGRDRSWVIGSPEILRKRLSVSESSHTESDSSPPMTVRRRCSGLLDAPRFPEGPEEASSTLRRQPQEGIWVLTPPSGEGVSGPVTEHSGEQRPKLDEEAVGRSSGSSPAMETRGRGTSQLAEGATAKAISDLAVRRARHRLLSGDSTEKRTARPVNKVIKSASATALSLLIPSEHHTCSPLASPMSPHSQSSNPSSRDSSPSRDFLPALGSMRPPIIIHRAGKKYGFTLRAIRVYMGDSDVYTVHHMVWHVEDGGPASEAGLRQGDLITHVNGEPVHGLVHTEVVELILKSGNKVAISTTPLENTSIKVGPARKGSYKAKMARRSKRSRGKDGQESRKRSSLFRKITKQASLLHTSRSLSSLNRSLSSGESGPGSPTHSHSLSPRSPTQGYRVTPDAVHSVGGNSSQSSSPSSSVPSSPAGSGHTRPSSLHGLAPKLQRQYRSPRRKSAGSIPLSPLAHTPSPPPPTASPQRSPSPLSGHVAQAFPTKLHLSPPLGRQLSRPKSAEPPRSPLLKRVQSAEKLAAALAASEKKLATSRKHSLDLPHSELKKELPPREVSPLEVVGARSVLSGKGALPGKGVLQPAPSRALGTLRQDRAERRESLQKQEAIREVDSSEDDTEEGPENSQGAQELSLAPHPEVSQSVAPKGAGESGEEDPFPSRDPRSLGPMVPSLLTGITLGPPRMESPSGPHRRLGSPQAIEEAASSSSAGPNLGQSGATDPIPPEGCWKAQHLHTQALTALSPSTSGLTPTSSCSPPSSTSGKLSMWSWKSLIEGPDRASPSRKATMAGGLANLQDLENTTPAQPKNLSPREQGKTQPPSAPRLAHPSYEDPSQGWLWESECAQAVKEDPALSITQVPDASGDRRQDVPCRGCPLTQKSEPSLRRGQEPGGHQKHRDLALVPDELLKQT
T2 sequence (P55196 whole entry, the tested form may be a part): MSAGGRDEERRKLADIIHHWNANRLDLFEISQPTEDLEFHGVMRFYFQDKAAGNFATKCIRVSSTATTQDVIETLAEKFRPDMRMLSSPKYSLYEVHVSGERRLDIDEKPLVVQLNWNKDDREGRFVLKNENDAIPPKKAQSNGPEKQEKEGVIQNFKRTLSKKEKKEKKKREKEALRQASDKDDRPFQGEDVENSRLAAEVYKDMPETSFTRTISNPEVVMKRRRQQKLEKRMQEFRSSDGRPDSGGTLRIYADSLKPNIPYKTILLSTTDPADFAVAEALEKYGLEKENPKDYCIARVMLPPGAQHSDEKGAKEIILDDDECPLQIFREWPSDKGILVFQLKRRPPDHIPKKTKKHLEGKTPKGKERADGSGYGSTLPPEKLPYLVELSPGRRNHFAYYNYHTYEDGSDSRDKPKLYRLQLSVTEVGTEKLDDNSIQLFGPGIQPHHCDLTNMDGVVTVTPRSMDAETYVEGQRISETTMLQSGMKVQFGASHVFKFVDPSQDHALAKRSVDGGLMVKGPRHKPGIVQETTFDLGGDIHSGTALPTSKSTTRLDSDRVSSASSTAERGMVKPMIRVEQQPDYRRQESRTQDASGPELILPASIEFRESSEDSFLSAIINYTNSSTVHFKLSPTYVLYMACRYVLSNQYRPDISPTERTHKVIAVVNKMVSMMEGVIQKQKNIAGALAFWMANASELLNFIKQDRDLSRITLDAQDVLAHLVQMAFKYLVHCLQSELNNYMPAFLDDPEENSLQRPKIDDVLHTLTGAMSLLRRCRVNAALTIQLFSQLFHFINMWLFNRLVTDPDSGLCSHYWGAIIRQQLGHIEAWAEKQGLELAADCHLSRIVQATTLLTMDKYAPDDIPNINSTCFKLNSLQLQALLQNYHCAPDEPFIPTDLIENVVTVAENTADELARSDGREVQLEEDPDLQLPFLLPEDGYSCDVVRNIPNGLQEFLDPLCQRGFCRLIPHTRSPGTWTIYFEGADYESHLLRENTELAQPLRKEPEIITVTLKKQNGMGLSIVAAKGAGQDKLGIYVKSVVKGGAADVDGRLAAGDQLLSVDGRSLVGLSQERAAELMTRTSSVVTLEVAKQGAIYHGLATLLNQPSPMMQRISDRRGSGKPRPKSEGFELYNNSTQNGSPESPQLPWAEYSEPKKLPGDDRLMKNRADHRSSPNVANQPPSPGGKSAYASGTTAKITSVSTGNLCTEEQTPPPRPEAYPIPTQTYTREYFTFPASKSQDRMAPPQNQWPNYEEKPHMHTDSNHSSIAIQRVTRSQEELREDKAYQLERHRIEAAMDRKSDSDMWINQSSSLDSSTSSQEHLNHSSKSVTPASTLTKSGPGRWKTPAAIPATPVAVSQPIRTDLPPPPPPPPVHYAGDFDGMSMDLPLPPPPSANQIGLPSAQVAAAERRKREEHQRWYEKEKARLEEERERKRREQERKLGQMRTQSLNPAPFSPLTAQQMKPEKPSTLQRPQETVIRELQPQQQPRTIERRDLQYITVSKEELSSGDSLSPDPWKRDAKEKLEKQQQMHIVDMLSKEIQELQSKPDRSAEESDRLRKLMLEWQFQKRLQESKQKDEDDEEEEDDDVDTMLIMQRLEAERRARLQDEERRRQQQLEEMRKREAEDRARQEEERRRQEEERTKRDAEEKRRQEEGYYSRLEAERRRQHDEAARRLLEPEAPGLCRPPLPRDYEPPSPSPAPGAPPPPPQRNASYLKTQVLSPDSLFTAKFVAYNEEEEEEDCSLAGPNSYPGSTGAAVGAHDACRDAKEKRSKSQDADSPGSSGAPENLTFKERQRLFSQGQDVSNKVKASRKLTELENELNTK

## YSQPSARSEGEFKQTSSFLV (Biotin-YSQPSARSEGEFKQTSSFLV) [JAM (junctional adhesion molecule)]
[1]
  Classification: 1 (A450 nm 0-1)
[2]
  Classification: 1 (A450 nm 0-1)
[3]; PDZ PTPL-1, PDZ Domain 4
  Classification: 1 (A450 nm 0-1)

## CC[C@H](C)[C@H](NC(=O)CCCC[C@@H]1SC[C@@H]2NC(=O)N[C@@H]21)C(=O)N[C@H](C(=O)N[C@H](C(=O)N[C@H](C(=O)N[C@H](C(=O)N[C@H](C(=O)N[C@@H](CCSC)C(=O)N[C@H](C(=O)N[C@H](C(=O)N[C@@H](CC(N)=O)C(=O)N[C@H](C(=O)N[C@@H](CC(=O)O)C(=O)N[C@@H](Cc1ccccc1)C(=O)N1CCC[C@H]1C(=O)N1CCC[C@H]1C(=O)N[C@@H](CCCCN)C(=O)N[C@@H](CCC(=O)O)C(=O)N[C@@H](CO)C(=O)N[C@@H](CO)C(=O)N[C@@H](CC(C)C)C(=O)O)C(C)C)[C@@H](C)O)C(C)C)[C@@H](C)O)C(C)C)C(C)C)[C@@H](C)O)C(C)C [ActRIIA] (Biotin-IVTVVTMVTNVDFPPKESSL-OH; C-terminus assumed)
[4]; PDZ KIAA1634, PDZ Domain 2
  Classification: 2 (A450 nm 1-2)
[3]; PDZ PTPL-1, PDZ Domain 2
  Classification: 3 (A450 nm 2-3)
[5]
  Kd: 5 µM
[6]
  Kd: 5 µM

## AKT-1 (Biotin-VDSERRPHFPQFSYSASSTA)
[7]
  Classification: 4 (A450 nm 3-4)
[8]; PDZ KIAA0807(S), PDZ Domain 1
  Classification: 1 (A450 nm 0-1)
[8]; PDZ KIAA807, PDZ Domain not given
  Classification: 1 (A450 nm 0-1)
[9]
  Kd: 2.5 µM

## SSPDSSYQGKGFVMSRAMYV (Biotin-SSPDSSYQGKGFVMSRAMYV) [Nectin 2]
[10]
  Classification: 2 (A450 nm 1-2)
[2]
  Classification: 2 (A450 nm 1-2)
[4]; PDZ KIAA1634, PDZ Domain 1
  Classification: 1 (A450 nm 0-1)

From patent US20050282743A1, “Molecular interactions in cells” (Arbor Vita Corporation, priority 2001, published 2005)
